experiment: soluble on expression in E. coli; label from the status in PepcDB or PDB records

Soluble on expression in E. coli, soluble:
MSLCRVLAVKPSSYYDWMNRNISDQQIHRNQCELLVKAAHTETRERYGVDRLQAHLRQQGHYVSQYMIRSIKEEYGIKCRRHKRFKMTTNSNHNKLVYLNVLDQQFDAKHPNESWVSDITYIWTNEGWLYLAGVKDLYTKELVGYAINKRMTADLVCRALNMAIKNKRPRQGLIVHSDRGSQYCSHAYHKIIEQHQFTGSMSAKGNCFDNAPIESFWGVLKNELVYHQDYKTRFEAISDITQYIELEYNEERLAKHCFAATQDKSCARSGAREGHHHHHH, MSLDAKLRYKAKKIKIVFFDIDDTLRNSKTGFIPTTIPTVFKQLREKGILTGIASGRGIFGVVPEIRDLKPDFFVTLNGAYIEDKKGQVIYQHQIEKSDVEEYISWAKQEGIEYGLVGSHDAKLSTRTDMMSEAINPIYPDLDVDPGFHEKEDIYQMWTFEDKGDDLHLPDSLSDKLRMVRWHQHSSDIVPISGSKATGVEKVVEHLGLKPEKVMVFGDGLNDLELFDYAGISVAMGISHDKIKEKADYITKTLEEDGIFDALEVFGMVEKELHFPQVDIETVEGPLATIKTNHGDLRIKLFPEHAPKTVANFVSLSKDGYYDGVIFHRIIKDFMIQGGDPTGTGMGGESIYGESFEDEFSEELYNIRGALSMANAGPNTNGSQFFIVQNQHLPYSKKEITRGGWPEPIAEIYANQGGTPHLDRRHTVFGQLADEASYAVLDVIAAVETGAMDKPVEDVVIETIEIEDEGHHHHHH, MSLDDRRLIAEVEARRADLVALTQDLVRIPTLNPPGRNYRALCDMLAARLAPQFEVELVRAHGAPGDSETYPRWNLIARRQGARDGDCVHFNSHHDVVEVGHGWTRDPFGAEVEGDRLYGRGACDMKGGLAASVIAAEAFLAVCPDFAGSIEISATADEESGGFGGVAYLARQGRFAHVQHVLIPEPLHKDRICLGHRGVWWAEVETQGRIAHGSMPFLGDSAIRHMGALLAEIEERLYPLLATRTTAMPVTPEGARQSTLNINSIHGGEPEPEPGYTGLPAPCVADRCRIVIDRRFLIEEDLDEVKAELRALAERLAEARPGFAFEIRDLFEVRPTLTDRDAPVVRSTAAAIERVLARQAEYVVSPGTYDQKHIDRIGKLKNCIAYGPGLLHLAHQPDEWVGIADMVDSAKVMALVLADLLAPEEGHHHHHH, MSLDISKKSLLTPAEAAKLLHVAPTTIRHWAQIGRLPFISTPGGHRRFDRNDILSLMSTPKINVKNDFSILIIEDDKEFADMLTQFLENLFPYAKIKIAYNPFDAGDLLHTVKPDVVMLDLMMVGMDGFSICHRIKSTPATANIIVIAMTGALTDDNVSRIVALGAETCFGKPLNFTLLEKTIKQLVEQKKATSEGHHHHHH, MSLDIVSHQKIRRFEAGTFQEIESSVATEYPLTIYVNDQELVTIVCTPEYLEDLVVGFLTSEGIVRGPRDINSVDIIEATGHAKVSANFVNKFNAKYRGKRYITSCCGKSRENFYFQSDASLVNVKQNGNLQLTTDMIFRLMEKFEQNSATFHQTGGVHNAALCSSAEIIYSRMDIGRHNALDKIYGRALQDGTSTEDKAIIFSGRISSEILVKTAKLGCGIILSRSAPTELAINMAEELNITTVGFIRGDRLNVYSGFERITEGHHHHHH, MSLDKHLLVKRTLGCVCAATLMGAALATHHDSLNTVKAEEKTVQVQKGLPSIDSLHYLSENSKKEFKEELSKAGQESQKVKEILAKAQQADKQAQELAKMKIPEKIPMKPLHGPLYGGYFRTWHDKTSDPTEKDKVNSMGELPKEVDLAFIFHDWTKDYSLFWKELATKHVPKLNKQGTRVIRTIPWRFLAGGDNSGIAEDTSKYPNTPEGNKALAKAIVDEYVYKYNLDGLDVDVEHDSIPKVDKKEDTAGVERSIQVFEEIGKLIGPKGVDKSRLFIMDSTYMADKNPLIERGAPYINLLLVQVYGSQGEKGGWEPVSNRPEKTMEERWQGYSKYIRPEQYMIGFSFYEENAQEGNLWYDINSRKDEDKANGINTDITGTRAERYARWQPKTGGVKGGIFSYAIDRDGVAHEGHHHHHH

— the DeepSol protein solubility set
